Measured values from publication PMC3045603.

Key:
[1] = target: yeast ScNep1^D90G (Bowen-Conradi syndrome mutation) with an N-terminal hexahistidine tag (S. cerevisiae) (UniProt Q06287); experiment: SEC
[2] = target: wild-type yeast ScNep1 with an N-terminal hexahistidine tag (S. cerevisiae) (UniProt Q06287); experiment: SEC

Kd [1] [µM] | stoichiometry N [1] | Kd [2] [µM] | Substance
5.8 | 2 | – | yeast ScNep1^D90G (Bowen-Conradi syndrome mutation) with an N-terminal hexahistidine tag (from UniProt Q06287 1-252) (enzyme)
– | – | 134 | wild-type yeast ScNep1 with an N-terminal hexahistidine tag (from UniProt Q06287 1-252) (enzyme)
